The target in the test is Karyopherin-β2 (human) (UniProt Q92973). Put plainly: ITC.
Sequence of UniProt Q92973 (Q92973 9-898): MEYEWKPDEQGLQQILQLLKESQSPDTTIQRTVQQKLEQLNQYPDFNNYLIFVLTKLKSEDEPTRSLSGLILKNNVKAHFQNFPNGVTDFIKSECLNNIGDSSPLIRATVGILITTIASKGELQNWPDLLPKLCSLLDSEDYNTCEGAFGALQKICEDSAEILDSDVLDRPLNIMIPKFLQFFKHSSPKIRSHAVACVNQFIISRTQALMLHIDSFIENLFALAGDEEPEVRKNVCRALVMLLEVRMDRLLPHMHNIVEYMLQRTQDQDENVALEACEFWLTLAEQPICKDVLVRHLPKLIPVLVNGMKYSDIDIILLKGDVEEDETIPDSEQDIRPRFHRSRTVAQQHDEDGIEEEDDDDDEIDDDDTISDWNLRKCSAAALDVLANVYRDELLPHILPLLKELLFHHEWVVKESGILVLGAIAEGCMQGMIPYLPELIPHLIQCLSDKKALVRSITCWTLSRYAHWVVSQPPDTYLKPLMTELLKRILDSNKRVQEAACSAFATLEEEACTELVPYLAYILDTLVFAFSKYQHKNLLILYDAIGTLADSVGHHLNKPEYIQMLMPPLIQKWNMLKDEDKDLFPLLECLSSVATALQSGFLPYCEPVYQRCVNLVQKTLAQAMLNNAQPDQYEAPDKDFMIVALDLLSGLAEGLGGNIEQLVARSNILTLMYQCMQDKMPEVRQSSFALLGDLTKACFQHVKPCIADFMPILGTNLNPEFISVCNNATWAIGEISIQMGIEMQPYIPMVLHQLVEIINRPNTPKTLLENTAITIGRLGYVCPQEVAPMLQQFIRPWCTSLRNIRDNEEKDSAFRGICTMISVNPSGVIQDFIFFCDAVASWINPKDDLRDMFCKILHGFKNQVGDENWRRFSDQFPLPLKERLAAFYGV
As for “MBP-H3 Tail(1–47) K18A (from UniProt P68431 2-48) (domain or fragment)”, the Kd stood at 0.12 µM.

“MBP-H3 Tail(1–47) K23A (from UniProt P68431 2-48) (domain or fragment)” came in with a Kd of 0.147 µM. The substance “MBP-H3 Tail(1–47) K23A, R26A, K27A (from UniProt P68431 2-48) (domain or fragment)” returned an equilibrium dissociation constant (Kd) of 0.119 µM. Consider “MBP-H3 Tail(1–47) K27A (from UniProt P68431 2-48) (domain or fragment)”, for which the equilibrium dissociation constant (Kd) is 0.133 µM. In the case of “MBP-H3 Tail(1–47) R17A (from UniProt P68431 2-48) (domain or fragment)” it was 0.389 µM; in that of “MBP-H3 Tail(1–47) R26A (from UniProt P68431 2-48) (domain or fragment)”, 0.122 µM; in that of “MBP-H3 Tail(1–47) wild-type (from UniProt P68431 2-48) (domain or fragment)”, 0.0771 µM.

By Kd is commonly meant a measure of binding affinity in units of concentration. Read a high Kd as weaker binding.

These data come from article PMC5053885.
